Measured values: US20240400670A1 (JIANGSU HENGRUI PHARMACEUTICALS, published 2024)
Where a chain is given by its changes, count along the chain named.

T1: human IL-23 (Sino Biological, CT048-H08H) (human, UniProt Q9NPF7 20-189; P29460 23-328)
T1 sequence (looked up) 1: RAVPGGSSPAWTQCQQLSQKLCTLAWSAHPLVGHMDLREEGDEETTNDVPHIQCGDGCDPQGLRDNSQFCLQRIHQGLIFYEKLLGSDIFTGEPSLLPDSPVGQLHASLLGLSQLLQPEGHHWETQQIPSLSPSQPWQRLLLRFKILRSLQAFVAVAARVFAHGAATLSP
T1 sequence (looked up) 2: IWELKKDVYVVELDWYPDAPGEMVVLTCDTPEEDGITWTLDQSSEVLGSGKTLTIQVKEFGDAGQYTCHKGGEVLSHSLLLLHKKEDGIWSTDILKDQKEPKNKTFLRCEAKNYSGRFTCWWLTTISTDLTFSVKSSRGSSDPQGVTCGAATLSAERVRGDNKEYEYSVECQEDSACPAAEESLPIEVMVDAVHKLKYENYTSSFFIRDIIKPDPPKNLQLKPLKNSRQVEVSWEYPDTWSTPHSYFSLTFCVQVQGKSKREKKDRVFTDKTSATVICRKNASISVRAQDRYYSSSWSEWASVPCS

T2: IL-23 (R&D Systems, 1290-IL-010) (UniProt Q9NPF7 20-189; P29460 23-328)
T2 sequence (looked up) 1: T1 sequence (looked up) 1
T2 sequence (looked up) 2: T1 sequence (looked up) 2

T3: mouse IL-23 (R&D Systems, 1887-ML/CF) (mouse, UniProt Q9EQ14 22-196; P43432 23-335)
T3 construct: also called Mouse IL-23 p19
T3 sequence (looked up) 1: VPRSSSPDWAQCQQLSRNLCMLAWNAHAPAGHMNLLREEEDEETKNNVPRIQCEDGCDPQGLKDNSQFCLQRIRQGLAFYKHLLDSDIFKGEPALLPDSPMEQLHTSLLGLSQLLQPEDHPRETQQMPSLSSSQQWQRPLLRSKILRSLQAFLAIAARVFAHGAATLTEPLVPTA
T3 sequence (looked up) 2: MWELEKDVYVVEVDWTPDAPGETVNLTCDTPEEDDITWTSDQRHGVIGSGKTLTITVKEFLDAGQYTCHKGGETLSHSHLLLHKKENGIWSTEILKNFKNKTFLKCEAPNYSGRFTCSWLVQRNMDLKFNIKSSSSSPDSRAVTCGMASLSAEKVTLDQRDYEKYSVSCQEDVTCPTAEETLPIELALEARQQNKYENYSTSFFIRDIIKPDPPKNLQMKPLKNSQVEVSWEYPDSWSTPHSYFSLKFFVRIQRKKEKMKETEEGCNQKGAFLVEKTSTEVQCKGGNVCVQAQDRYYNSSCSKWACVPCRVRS

B1: Ch38 (antibody, human IgG1, kappa, L234A L235A, V domains shown)
VH: EFQLQQSGPELVKPGASVKISCKASGYSFTDHNMNWVKQSNGKSLEWIGVINPNYGTTTYNQKFKGKATLTVDQSSSTAYMQLNILTSEDSAVYYCARRGFAYWGQGTLVTVSA
VL: DIVISQDELSNPVTSGESVSISCRSSKSLLYKDGKTYLNWFLQRPGQSPQLLIYLMSTRASGVSDRFSGSGSGTDLTLEISRVKAEDVGVYYCQQIAEYPFTFGSGTKLEIKR
notes: chimeric: murine variable regions on hIgG1/hkappa; also called chimeric antibody of mAb38
B2: Ch29 (antibody, human IgG1, kappa, L234A L235A, V domains shown)
VH: QVQLKESGPGLVAPSQSLSITCTVSGFSLTSYAISWVRQPPGKGLEWLGVIWTGGGTNYNSGIKSRLTISKDNSKSQVFLNMNSLQTEDTARYYCVREGDYGSYAGAMDYWGQGTSVTVSS
VL: DIVLTQSPASLAVSLGQRATISCRASESVDYYGISSMHWFQQKPGQPPKLLIYRASNLESGIPARFSGSGSRTDFTLTINRVETDDVATYYCQQANKDPYTFGGGTKLEIKR
notes: chimeric: murine variable regions on hIgG1/hkappa; also called chimeric antibody of mAb29
B3: Hu29-19 (antibody, human IgG1, kappa, L234A L235A, V domains shown)
VH: QVTLKESGPVLVKPTETLTLTCTVSGFSLTNYAISWVRQPPGKGLEWLGVIWTGGGTNYNSGIKSRLTISKDNSKSQVVLTMTNMDPVDTARYYCVREGDYGSYAGAMDYWGQGTTVTVSS
VL: DIVLTQSPDSLAVSLGERATINCRASESVDYYGISSMHWFQQKPGQPPKLLIYRASNLESGIPARFSGSGSRTDFTLTISSLQAEDVAVYYCQQANKDPYTFGGGTKVEIKR
notes: humanized mAb29, IgG1/kappa
B4: Hu29-24 (antibody, human IgG1, kappa, L234A L235A)
heavy: not shown
light: DIVLTQSPDSLAVSLGQRATINCRASESVDYYGISSMHWFQQKPGQPPKLLIYRASNLESGIPARFSGSGSRTDFTLTISSLQAEDVAVYYCQQANKDPYTFGGGTKVEIKRTVAAPSVFIFPPSDEQLKSGTASVVCLLNNFYPREAKVQWKVDNALQSGNSQESVTEQDSKDSTYSLSSTLTLSKADYEKHKVYACEVTHQGLSSPVTKSFNRGEC
notes: humanized mAb29, IgG1/kappa
B5: Hu38-2 (antibody, human IgG1, kappa, L234A L235A, V domains shown)
VH: EFQLVQSGAEVKKPGASVKVSCKASGYTFTDHNMNWVRQAPGQRLEWMGVINPNYGTTTYNQKFKGRVTITVDTSASTAYMELSSLRSEDTAVYYCARRGFAYWGQGTLVTVSS
VL: DIVMTQTPLSLPVTPGEPASISCRSSKSLLYKDGKTYLNWFLQKPGQSPQLLIYLMSTRASGVPDRFSGSGSGTDLTLKISRVEAEDVGVYYCQQIAEYPFTFGSGTKLEIKR
notes: humanized mAb38, IgG1/kappa
B6: Hu38-4 (antibody, human IgG1, kappa, L234A L235A, V domains shown)
VH: B5 VH
VL: B5 VL with S57Q
notes: humanized mAb38, IgG1/kappa
B7: Hu38-5 (antibody, human IgG1, kappa, L234A L235A, V domains shown)
VH: B5 VH with F2V, T28S
VL: B5 VL with F41Y, L76F
notes: humanized mAb38, IgG1/kappa
B8: Hu38-13 (antibody, human IgG1, kappa, L234A L235A, V domains shown)
VH: B5 VH with T28S, R44S, T74Q
VL: B5 VL with F41Y, L76F
notes: humanized mAb38, IgG1/kappa
B9: Hu38-9 (antibody, human IgG1, kappa, L234A L235A, V domains shown)
VH: B5 VH with T28S, T74Q
VL: B5 VL with F41Y, L76F
notes: humanized mAb38, IgG1/kappa
B10: risankizumab (antibody, human IgG1, kappa, L234A L235A, V domains shown)
VH: QVQLVQSGAEVKKPGSSVKVSCKASGYTFTDQTIHWMRQAPGQGLEWIGYIYPRDDSPKYNENFKGKVTITADKSTSTAYMELSSLRSEDTAVYYCAIPDRSGYAWFIYWGQGTLVTVSS
VL: DIQMTQSPSSLSASVGDRVTITCKASRDVAIAVAWYQQKPGKVPKLLIYWASTRHTGVPSRFSGSGSRTDFTLTISSLQPEDVADYFCHQYSSYPFTFGSGTKLEIKR
notes: control anti-IL-23 antibody; also called control molecule

What follows are binders tested against T1, human IL-23 (Sino Biological, …) (assay: cell-based or functional assay).

Activity in inhibiting proliferation of BaF3-IL-23R cells (IC50, nM) | Binder
0.222 nM | B1
0.175 nM | B2
0.194 nM | B3
0.178 nM | B4

Biological target: T1, human IL-23 (Sino Biological, …)
Experiment: cell-based or functional assay
Remark: another data set of the same source

Activity in inhibiting proliferation of BaF3-IL-23R cells (IC50, nM) | Binder
0.138 nM | B5
0.122 nM | B6
0.148 nM | B7
0.187 nM | B8
0.198 nM | B9

Each binder was assayed against T2, IL-23 (R&D Systems, 1290-IL-010) (assay: cell-based or functional assay).

IC50 for inhibiting IL-17 secretion | Binder
0.0177 nM | B3
0.0289 nM | B4

What follows are binders tested against T3, mouse IL-23 (R&D Systems, 1887-ML/CF) (assay: SPR (Biacore), Protein A capture of sample).

binding result | Binder
no binding | B6
no binding | B3
no binding | B4

What follows are binders tested against T1, human IL-23 (Sino Biological, …) (assay: ELISA, sample coated, IL-23 titrated, anti-His-HRP).
Method: (§1) The specific procedures are as follows:
The test sample was diluted to 2 μg/mL with a PBS (BasalMedia, B320) buffer at pH 7.4 and added to a 96-well microplate (Coming, 3590) at 100 μL/well. The plate was incubated at 4° C. overnight. After the liquid was discarded, 5 % skim milk (BD, 232100) diluted with PBS was added at 300 μL/well for blocking, and the mixture was incubated at 37° C. for 2 h. After the blocking was completed, the blocking solution was discarded, and the plate was washed 3 times with a PBST buffer (pH 7.4, PBS containing 0.1 % tween-20). […] After the incubation, the plate was washed 3 times with PBST. […] After the plate was washed 3 times with PBST, a TMB chromogenic substrate (KPL, 5120-0077) was added at 100 μL/well, and the mixture was incubated at room temperature for 10⁻¹⁵ min, and then 1 M H₂SO₄ was added at 50 μL/well to terminate the reaction. The absorbance values at 450 nm were taken using a microplate reader. The binding curves of antibodies to antigens were fitted using software, and the EC₅₀ values were calculated.

EC50 | Binder
1.88 nM | B6
1.83 nM | B1
1.16 nM | B2
1.11 nM | B3
1.22 nM | B4

The binders below were run against cynomolgus monkey IL-23 (Acro Biosystems, ILB-CM52W8) (cynomolgus monkey, UniProt H6WS56 20-189) (assay: SPR (Biacore), Protein A capture of sample, 1:1 model).
Method: (§2) A certain amount of test sample was subjected to affinity capture by a biosensor chip Protein A (GE, 29127556), and then antigens at a series of concentration gradients were allowed to flow on the surface of the chip. The reaction signals were detected in real time by using Biacore (GE, 8 K) to obtain association and dissociation curves. After the dissociation was completed for each cycle, the biochip was washed and regenerated with a 10 mM glycine-hydrochloric acid solution at pH 1.5 (GE, BR-1003-54). Fitting was performed based on the experimental data using BlAevaluation version 4.1 software with a 1:1 model, and affinity values were obtained.

Kd | koff | kon | Binder
0.0768 nM | 3.09e-05 s⁻¹ | 402000 M⁻¹ s⁻¹ | B6
0.0708 nM | 0.000192 s⁻¹ | 2.71e+06 M⁻¹ s⁻¹ | B3
0.0857 nM | – | – | B4

The binders below were run against T1, human IL-23 (Sino Biological, …) in the same assay as above.
Method: as §2

Kd | koff | kon | Binder
0.18 nM | 6.05e-05 s⁻¹ | 337000 M⁻¹ s⁻¹ | B5
0.196 nM | 6.92e-05 s⁻¹ | 353000 M⁻¹ s⁻¹ | B6
0.277 nM | 5.82e-05 s⁻¹ | 210000 M⁻¹ s⁻¹ | B7
0.27 nM | 5.56e-05 s⁻¹ | 206000 M⁻¹ s⁻¹ | B8
0.283 nM | 6.68e-05 s⁻¹ | 236000 M⁻¹ s⁻¹ | B9
0.0901 nM | 5.65e-05 s⁻¹ | 627000 M⁻¹ s⁻¹ | B1
0.0651 nM | 4.91e-05 s⁻¹ | 754000 M⁻¹ s⁻¹ | B10
0.0207 nM | 8.4e-05 s⁻¹ | 4.05e+06 M⁻¹ s⁻¹ | B2
0.0151 nM | 4.08e-05 s⁻¹ | 2.71e+06 M⁻¹ s⁻¹ | B3
0.0149 nM | – | – | B4

The binders below were run against T1, human IL-23 (Sino Biological, …) (assay: competition ELISA, blocks IL-23/IL-23R; IL-23R coated, biotin-IL-23 + sample gradient).
Method: as §1
The receptor protein was diluted to 2 μg/mL with a PBS (BasalMedia, B320) buffer at pH 7.4 and added to a 96-well microplate (Corning, 3590) at 100 μL/well. The plate was incubated at 4° C. overnight. After the liquid was discarded, 1 % Casein blocking solution (Thermo, 37528) was added at 200 μL/well for blocking, and the plate was incubated at 37° C. for 2 h. After the blocking was complete, the blocking solution was discarded, and the plate was washed 3 times with a PBST buffer (pH 7.4 PBS containing 0.1 % tween-20) for later use. After the biotin-labeled ligand protein at a fixed concentration was mixed with an antibody or fusion protein diluted in a gradient, the mixture was pre-incubated at 37° C. for 30 min and then added to the blocked microplate. The plate was incubated at 37° C. for 1.5 h. After the incubation was complete, the plate was washed 3 times with PBST. Streptavidin-HRP (Invitrogen, 434323, diluted at 1:4000) was added at 100 μL/well, and the plate was incubated at 37° C. for 1 h. The supernatant was removed. After the plate was washed 3 times with PBST, TMB chromogenic substrate (KPL, 5120-0077) was added at 100 μL/well, and the plate was incubated at room temperature for 10⁻¹⁵ min. 1 M H₂SO₄ was added at 50 μL/well to terminate the reaction. The absorbance values at 450 nm were taken using a microplate reader. Curves for the inhibition of binding of the ligands to the receptors were fitted using software, and the IC₅₀ values were calculated.

IC50 | Binder
0.465 nM | B5
0.427 nM | B6
0.228 nM | B7
0.455 nM | B8
0.496 nM | B9
0.361 nM | B1
0.61 nM | B10
0.386 nM | B2
0.478 nM | B3
0.488 nM | B4
